Laboratory results from paper PMC5176304 (PLoS ONE, 2016).

Key:
Experiment in all cases: SEC-MALS; size exclusion chromatography with multi-angle light scattering of Ni-purified uricases dialyzed into PBS; noncovalent molecular weight compared with the theoretical tetramer
[1] = biological target: Deinococcus radiodurans uricase (Deinococcus radiodurans)
[2] = biological target: Kyrpidia tusciae uricase (Kyrpidia tusciae)
[3] = biological target: Terriglobus saanensis uricase (Terriglobus saanensis)
[4] = biological target: Granulicella tundricola uricase (Granulicella tundricola)
[5] = biological target: Solibacter usitatus uricase (Solibacter usitatus)
[6] = biological target: Deinococcus geothermalis uricase (Deinococcus geothermalis)
[7] = biological target: the molecule itself

“Deinococcus radiodurans uricase (enzyme)” showed a stoichiometry N [1] of 4.

Molecule Kyrpidia tusciae uricase (enzyme) has a stoichiometry N [2] of 4.

Terriglobus saanensis uricase (enzyme) was tested, and the stoichiometry N [3] was 4.

“Granulicella tundricola uricase (enzyme)” showed a stoichiometry N [4] of 4.

Solibacter usitatus uricase (enzyme) gave a stoichiometry N [5] of 4.

“Deinococcus geothermalis uricase (enzyme)” gave a stoichiometry N [6] of 4.

B1: Arthrobacter globiformis uricase (C-terminally truncated by 11 amino acids, N-terminal His tag) (enzyme, UniProt D0VWQ1 1-291, looked up)
chain: MTATAETSTGTKVVLGQNQYGKAEVRLVKVTRNTARHEIQDLNVTSQLRGDFEAAHTAGDNAHVVATDTQKNTVYAFARDGFATTEEFLLRLGKHFTEGFDWVTGGRWAAQQFFWDRINDHDHAFSRNKSEVRTAVLEISGSEQAIVAGIEGLTVLKSTGSEFHGFPRDKYTTLQETTDRILATDVSARWRYNTVEVDFDAVYASVRGLLLKAFAETHSLALQQTMYEMGRAVIETHPEIDEIKMSLPNKHHFLVDLQPFGQDNPNEVFYAADRPYGLIEATIQREGSRAD
notes: Synthetic gene in a modified pET15b-based vector; also called RGD-containing Arthrobacter globiformis uricase; uricase containing RGD
B1 was tested, and the “stoichiometry N” value [7] was 4.
